The text below walks through data of US5770191, “Active C-terminal peptides of interferon--gamma and their use” (University of Florida, dated 1998).

This assay addresses T1, murine IFNγ receptor (murine, UniProt P15261).
T1 sequence: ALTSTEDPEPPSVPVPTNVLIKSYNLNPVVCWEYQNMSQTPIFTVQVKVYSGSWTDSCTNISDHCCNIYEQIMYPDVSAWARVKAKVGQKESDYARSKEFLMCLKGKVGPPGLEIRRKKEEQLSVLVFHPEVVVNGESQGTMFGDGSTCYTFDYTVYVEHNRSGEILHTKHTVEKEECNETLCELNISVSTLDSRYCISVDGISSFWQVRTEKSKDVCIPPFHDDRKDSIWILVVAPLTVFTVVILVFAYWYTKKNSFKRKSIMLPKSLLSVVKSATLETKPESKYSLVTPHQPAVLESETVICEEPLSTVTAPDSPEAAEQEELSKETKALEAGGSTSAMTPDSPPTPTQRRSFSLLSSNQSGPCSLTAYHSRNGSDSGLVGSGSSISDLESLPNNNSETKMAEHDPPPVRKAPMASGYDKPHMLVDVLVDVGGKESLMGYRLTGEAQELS
Description: cell-based or functional assay.

As for AKFEVNNPQVQRQAFNELIRVVHQLLPESSLRKRKRSRC [muIFNγ (95-133)], the “Ia (MHC class II) expression on P388D1 cells by FACS, peptide at 100 µM, 24 hours” value turned out to be 10 fold.

For the molecule LTNYSVTDLNVQRKAIHELIQVMAELSPAAKTGKRKRSQM [huIFNγ (95-134)], the “Ia (MHC class II) expression on P388D1 cells by FACS, peptide at 100 µM, 24 hours” value came to 10 fold.
